Assay results reported in patent publication US20080301824A1.

How the values were obtained:
[1] = target: GAL4 binding domain-parkin(1-465) fusion encoded by pGBT9-parkin(1-465) (UniProt P04386); experiment: cell-based or functional assay
[2] = target: GFP-syt11 (GFP-tagged full-length human synaptotagmin XI) (human) [GFP: P42212]; experiment: co-IP with anti-HA agarose from HEK293 cells, anti-GFP blot

β-galactosidase activity in yeast two-hybrid liquid assay, against pGAD10-hsyt11AB with pGBT9 vector control [1] [fold] | fold less interaction than parkinC418R [2] [fold less] | Substance
20 |  | GAL4 activation domain-hsyt11AB fusion encoded by pGAD10-hsyt11AB (human synaptotagmin 11, domains C2A and C2B) (from UniProt Q9BT88 157-431)
 | 2.5 | HA-tagged parkin with missense mutation C289G (from UniProt O60260 1-465) (enzyme)
